From publication PMC8993905, “Functional control of a 0.5 MDa TET aminopeptidase by a flexible loop revealed by MAS NMR” (Nature Communications, 2022)
Changes are numbered by the printed parent chain. Names and notes keep the numbering of the source.

B1: TET2 (Pyrococcus horikoshii OT3; DEL122-122/DEL126-126) (protein)
chain: MEVRNMVDYELLKKVVEAPGVSGYEFLGIRDVVIEEIKDYVDEVKVDKLGNVIAHKKGEGPKVMIAAHMDQIGLMVTHIEKNGFLRVAPIGGVDPKTLIAQRFKVWIDKGKFIYGVGASVPHIQPEDRKKAPDWDQIFIDIGAESKEEAEDMGVKIGTVITWDGRLERLGKHRFVSIAFDDRIAVYTILEVAKQLKDAKADVYFVATVQEEVGLRGARTSAFGIEPDYGFAIDVTIAADIPGTPEHKQVTHLGKGTAIKIMDRSVICHPTIVRWLEELAKKHEIPYQLEILLGGGTDAGAIHLTKAGVPTGALSVPARYIHSNTEVVDERDVDATVELMTKALENIHELKI
notes: full length, 353 residues per subunit, pET41c in E. coli BL21(DE3), no tag mentioned (heat step, Resource Q, Superdex 200), 39 kDa subunit, 468 kDa homododecamer, two Zn per active site
B2: TET2 (Pyrococcus horikoshii OT3) (protein)
chain: MEVRNMVDYELLKKVVEAPGVSGYEFLGIRDVVIEEIKDYVDEVKVDKLGNVIAHKKGEGPKVMIAAHMDQIGLMVTHIEKNGFLRVAPIGGVDPKTLIAQRFKVWIDKGKFIYGVGASVPPHIQKPEDRKKAPDWDQIFIDIGAESKEEAEDMGVKIGTVITWDGRLERLGKHRFVSIAFDDRIAVYTILEVAKQLKDAKADVYFVATVQEEVGLRGARTSAFGIEPDYGFAIDVTIAADIPGTPEHKQVTHLGKGTAIKIMDRSVICHPTIVRWLEELAKKHEIPYQLEILLGGGTDAGAIHLTKAGVPTGALSVPARYIHSNTEVVDERDVDATVELMTKALENIHELKI
notes: as for B1
B3: TET2 (Pyrococcus horikoshii OT3; H123Y) (protein)
chain: B2 chain with H123Y
notes: as for B1
B4: TET2 (Pyrococcus horikoshii OT3; H123K) (protein)
chain: B2 chain with H123K
notes: as for B1
B5: TET2 (Pyrococcus horikoshii OT3; H123F) (protein)
chain: B2 chain with H123F
notes: as for B1
B6: TET2 (Pyrococcus horikoshii OT3; DEL120-138) (protein)
chain: MEVRNMVDYELLKKVVEAPGVSGYEFLGIRDVVIEEIKDYVDEVKVDKLGNVIAHKKGEGPKVMIAAHMDQIGLMVTHIEKNGFLRVAPIGGVDPKTLIAQRFKVWIDKGKFIYGVGASIFIDIGAESKEEAEDMGVKIGTVITWDGRLERLGKHRFVSIAFDDRIAVYTILEVAKQLKDAKADVYFVATVQEEVGLRGARTSAFGIEPDYGFAIDVTIAADIPGTPEHKQVTHLGKGTAIKIMDRSVICHPTIVRWLEELAKKHEIPYQLEILLGGGTDAGAIHLTKAGVPTGALSVPARYIHSNTEVVDERDVDATVELMTKALENIHELKI
notes: as for B1

Substrate: CC(C)C[C@H](N)C(=O)Nc1ccc([N+](=O)[O-])cc1
Test: purified protein
Assay type: biochemical, Pyrococcus horikoshii
Conditions: pH 7.5 (20 mM Tris, 100 mM NaCl), 50 °C, 2.8% DMSO, 0.1-6.4 mM substrate
[1] = mutant printed as Δ(122,126), loop shortened by one residue on each side of H123
[2] = Δloop mutant, loop printed as shortened to a two-residue β-turn and as lacking residues 120-138

Protein | Km [mM] | kcat [s⁻¹] | further results
B1 | – | – | Km [1]: 28.5 ± 2.3 mM; kcat [1]: 31.5 ± 8.1 s⁻¹
B2 | 3.2 ± 0.1 | 14.1 ± 1.7 | –
B3 | 13.8 ± 0.6 | 15.7 ± 2.7 | –
B4 | 17.0 ± 1.3 | 16.9 ± 3.6 | –
B5 | 14.4 ± 0.6 | 26.6 ± 4.1 | –
B6 | – | – | Km [2]: 1.3 ± 0.1 mM; kcat [2]: 1.7 ± 1.0 s⁻¹
